Test results as given in patent US20040191815.

Assays:
[1] = molecular target: MafG homodimer (UniProt O15525); assay: SPR; conditions: pH 7.9; for Kd: 20 mM Hepes, 200 mM NaCl, 4 mM MgCl2, 1 mM EDTA, BSA
[2] = molecular target: MafG homodimer (UniProt O15525); assay: EMSA; conditions: gel mobility shift assay comparison, probe details not given
[3] = 5' thiol on anchor strand (immobilized)

Chain of MafG homodimer (O15525 whole entry): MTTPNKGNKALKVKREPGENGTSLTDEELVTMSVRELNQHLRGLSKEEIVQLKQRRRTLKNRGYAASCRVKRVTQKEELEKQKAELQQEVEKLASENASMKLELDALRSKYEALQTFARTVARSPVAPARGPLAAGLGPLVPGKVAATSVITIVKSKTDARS

Sequence	Kd [1, 3] [nM]	Kd [2, 3] [nM]	Ka ([1]; 5' thiol on anchor strand (immobilized), 10 mM Hepes, 300 mM NaCl, 4 mM Mg, 1 mM EDTA, ka 2.22e5 M-1s-1, kd 8.80e-4 s-1, Example 1 sequence printed only in figure) [M⁻¹]	Kd ([1]; 5' thiol on anchor strand (immobilized), SPR imaging) [nM]	Kd ([1]; 5' thiol on anchor strand (immobilized) [variable site 22-34 (TGCTGATTCAGCC), 5' thiol linker at 1 left out], listing SEQ 7 has 14 nt, Table 2 prints 13 nt) [nM]	Kd ([2]; 5' thiol on anchor strand (immobilized) [variable site 22-34 (TGCTGATTCAGCC), 5' thiol linker at 1 left out]) [nM]
TTTTTTTTTTTTTTTCGGAATAGTTGACTCAGCATTACTC (double strand) [hNQO1m]	8.58	273				
TTTTTTTTTTTTTTTCGGAATTGCTGACTCAGCATTACTC (double strand) [MARE 25]		249	2.52e+08	2.5		
TTTTTTTTTTTTTTTCGGAATTGCTGATTCAGCCTTACTC (double strand) [hOPSIN]					7.67	252
